# Positions of bridges follow the written chain, without caps; N, C: chain ends. No end group written: not given here.
# Biological target: guanylate cyclase receptor (on human T84 colon carcinoma cells) (human)
# Experiment: cell-based or functional assay
row,"cGMP Level (pmol/well), T84 cells, 1 micromolar peptide for 30 minutes",Binder
1,315 pmol/well,"NDECELCVNVACTGCL (disulfide 4-12, 7-15) [[Glu^3]-UG (SP304)]"
2,275 pmol/well,"ECELCVNVACTGCL (disulfide 2-10, 5-13) [SP316]"

# Continued, binder first:
row,Binder,"cGMP Level (pmol/well), T84 cells, 1 micromolar peptide for 30 minutes"
1,"NEECELCVNVACTGCL (disulfide 4-12, 7-15) [[Glu^2, Glu3]-UG (SP302)]",225 pmol/well
2,"NEDCELCVNVACTGCL (disulfide 4-12, 7-15) [[Glu^2]-UG (SP303)]",195 pmol/well
3,"NDDCELCVNVACTGCL (disulfide 4-12, 7-15) [human uroguanylin, bicyclo [4,12; 7,15] (SP301)]",205 pmol/well

# Source: patent publication US20030073628A1
